Experimental data: patent US12618835B2, “Multiplex microelectrode array for detection of proteases as biomarkers” (Kansas State University Research Foundation, priority 2021, dated 2026)
Where no end group is shown, it is not given here. [ ]: non-standard residue; d: D form. The star is where a group is joined. aminomethylferrocene = [Fe+2].c1cc[c-](CN*)c1.c1cc[cH-]c1; Ava = NCCCCC(=O)O

Biological target: T1, recombinant human cathepsin B (rhCB) (Homo sapiens, UniProt P07858)
T1 construct: purchased R&D Systems Inc. (Minneapolis, MN)
Assay: Electrochemical (ACV) proteolysis of peptide-Fc on Au MEA by activated rhCB in different buffers, Example 3
Assay type: biochemical
Protocol: Gold MEA Functionalization. The diced Au MEA chip was sonicated in acetone for 5 min to remove the photoresist protection layer, followed by rinsing with methanol and subsequently with isopropanol for 30 seconds. The Au MEA was then rinsed with deionized water and blow-dried with N2. Prior to use, the Au MEA chip was mounted in a home-made electrochemical cell described in our previous report and electrochemically cleaned by cycling voltammetry (CV) between −0.60 to 0.70 V in 0.10 M phosphate buffer (0.038 M NaH2PO4 and 0.061 M Na2HPO4, pH=7.4) vs. a mercury/mercurous sulfate reference electrode (MSE) filled with a saturated K2SO4 solution (CH Instruments, Austin, TX). The cleaned Au MEA was then rinsed with deionized water and blow-dried with N2. All electrochemical protease detection measurements in this study used an in-house synthesized hexapeptide H-15 attached with a ferrocene (Fc) redox tag, as the substrate (referred to as “peptide-Fc” in this study). […] To functionalize the MEA with this peptide-Fc substrate, the chip was first incubated in 1.0 mM 6-mercapto-1-hexanol mixed with 0.2 mM 6-mercapto-1-hexanoic acid in deionized water for 40 min to form a close-packed self-assembled monolayer (SAM) due to thiol adsorption on Au surface. The formed alkanethiol layer serves as an insulator to reduce the background current while providing a ratio of about 1:5 between —COOH and —OH groups at the top surface. The electrode was then incubated in 2.0 mM peptide-Fc substrate mixed with 0.2 g/L 1-ethyl-3-(3-dimethylaminopropyl)carbodiimide (EDC) and 0.2 g/L N-hydroxysulfosuccinimide (Sulfo-NHS) as coupling agents for 2 hours at room temperature to form amide bonds between the amine group in the peptide-Fc substrate and the carboxylic acid group on the SAM surface. […] The functionalized chip was rinsed with deionized water for 30 seconds to remove the physically adsorbed molecules.
Electrochemical Experiments. Electrochemical experiments were performed on a specially designed electrochemical cell mounted on a large copper block for temperature control by circulating thermostatic silicone liquid through the internal channels. The thermal circulator (Julabo, Allentown, PA) was set to achieve a temperature of 38.6° C. Two buffer solutions, 0.5×PB (pH=7.4) and 25 mM MES (pH=5.0), were used. In some experiments, the rhCB was activated by incubation in 25 mM MES buffer (pH=5.0) containing 5 mM DTT for 15 min. […] Fc signal on the Au surface was detected by alternating current voltammetry (ACV) with an AC frequency of 300 Hz and a voltage amplitude of 100 mV on a DC ramp from −0.45 V to 0.20 V vs. MSE. Electrochemical measurements were performed using an IVIUM n-Stat potentiostat (Eindhoven, The Netherlands), which allows measurement of up to ten independent working electrodes simultaneously versus a common MSE reference electrode and a common Pt coil counter electrode.
Principle of the Electrochemical Detection of Protease Activity. The sensing principles are described in Example 1. As shown in the cyclic voltammogram (CV) in FIG. 27, the Fc tag in the peptide-Fc functionalized at the Au microelectrode surface can be oxidized into ferrocenium (Fc^+), giving a pair of well-defined redox waves centered at −0.15 V (vs. MSE). These peaks disappeared after the peptide-Fc substrate was cleaved by proteolysis. The surface concentration of peptide-Fc substrate ΓSs can be derived from the integrated area under the oxidation peak to give ΓSs=3.1 pmol/cm^2, corresponding to an average nearest-neighbor distance of 7.9 nm between the peptide-Fc. This low density allows easy access by the protease. As further shown in FIG. 28, the weak faradaic signal can be amplified using ACV, i.e., applying an AC voltage on top of a DC potential ramp from −0.45 V to 0.20 V (vs. MSE). […]

inverse decay constant (1/τ) (1.0 nM activated cathepsin B, 0.2×PBS pH=7.4): (7.65±0.42)×10^−4 s^−1
average measured activity (1/τ) (1.0 nM activated cathepsin B, 0.5×PB pH=7.4, 8 channels): (42.1±3.7)×10^−4 s^−1
inverse decay constant (1/τ) (1.0 nM activated cathepsin B, 0.5×PBS pH=7.4): (11.44±0.64)×10^−4 s^−1
inverse decay constant (1/τ) (1.0 nM activated cathepsin B, 1×PBS pH=7.4): (4.2±1.1)×10^−4 s^−1
activity in 0.5×PB relative to 25 mM MES buffer (1.0 nM activated cathepsin B, same Au MEA chip): ~40 times
LOD of activity (0.5×PB, 3σblank+(1/τ)blank): 0.000849 s⁻¹
LOD of cathepsin B concentration (0.5×PB, 3σblank/m): 57.1 ± 0.41 pM
saturated 1/τ value (rhCB concentration above 1.0 nM, 0.5×PB): about 45×10^−4 s^−1
Substance: H2N-(CH2)4-CO-Pro-Leu-Ala-Phe-Val-Ala-NH-CH2-Fc ([Ava]PLAFVA-aminomethylferrocene) [Peptide H-15]
